Test: soluble on expression in E. coli; label from the status in PepcDB or PDB records

Sequence	soluble on expression in E. coli
MEENSADIENRPVAAFRPAVSVPMPVLPQDGEVFVGPGGKKDAQKIGLGLSKLSSKRKDDIQMAKKYAMDISIKQILLRQQKQQQENQQRQQMYSQALSIMSRIYVGSISFEIREDMLRRAFDPFGPIKSINMSWDPATGHHKTFAFVEYEVPEAALLAQESMNGQMLGGRNLKVNSMMFQEMRLPQNMPQAQPIIDMVQKDAKKYFRVYVSSVHPDLSETDLKSVFEAFGEIVKCQLARAPTGRGHRGFGYLEFNNLTSQSEAIAGMNMFDLGGQYLRVGKCVTPPDALTYLQPASVSAIPASVSVACAAITAKVMAAEAAAGSSPKTPSESGGSRAASPAPRAQSPATPSSSLPTDIENKAVISSPKKEPEEIEVPPLPPSAPDVVKDEPMEIEEEEEYTIPEEKPKPVAIVPPPGLAIPSLVAPPGLIAPTEIGIVVPNPSFLAQQQQKIEEKIEEEEEARTERVKLSTSQRKKMKREKLNQMTFEEKMAQVLGQQKAVQNQRMADPVTFGALDDTVAWKDPSNEDQTSEDGKMLAIMGPGRGGDNVASMALALMDGGSSLMLANNAKAKEAAAALALEPKKKKKVKEGKKIQPKLNTAQALAAAAKAGEMSDALKNEVMNSEDASLASQEGLEIRGNDARHLLMTKLMRTNRSNVIVLRNMVTPQDIDEFLEGEIREECGKYGNVIDVVIANFASSGLVKIFVKYSDSMQVDRAKAALDGRFFGGNTVKAEAYDQILFDHADYTG	not soluble
MSGNQMAMGSEQQQTVGSRTVSVEEVPAVLQLRATQDPPRSQEAMPTRHNVRWEENVIDNENMNKKKTKICCIFHPQNEDEEECNHHSDDDGSSSSGSSSSESENEKDLDFNERRQRRLERRHRKLEKKRSYSPNAYEIQPDYSEYRRKQQEKKDMGHHHHHHSH	soluble
PKHGKRYRALLEKVDPNKIYTIDEAAHLVKELATAKFDETVEVHAKLGIDPRRSDQNVRGTVSLPHGLGKQVRVLAIAKGEKIKEAEEAGADYVGGEEIIQKILDGWMDFDAVVATPDVMGAVGSKLGRILGPRGLLPNPKAGTVGFNIGEIIREIKAGRIEFRNDKTGAIHAPVGKASFPPEKLADNIRAFIRALEAHKPEGAKGTFLRSVYVTTTMGPSVRINPHS	soluble
GPGSMSASGSGVAAIYGRAEEAQNAPVKLQPVPAFELYKAAREEELCSYRSLCRVLCMHSGGKLTKQQRRILEDMREELCLPTERAEAELAAAREDVLVTSVAASGVLKRRQDFFDGVTDVPLDTLSYAESAKDDNNSLYVAQTKVARTEQIVGGVHGRHAAPSKMSIREIHKNLERIGREVAATSSKLLYCTSVVDQQAYRNVLQQKREQLQAMLREVEDAPPDMSGIASVMPSEHVY	soluble
MEYHLRTKLNGNIAMTSCFHENSFLQCDRSLYKFIWVRHGALDVEVDHVVMHLEKEEMISLTPLHHVQIRGVDGEYLTFLFNSNFYCIYGHDSEVSCNGFLFNGSSRVMRLKLSPSQSARLDSIVDIFRGECGIQDNLQEEMLRIILKRFIITCTRIAREKFDVDPGRENMFDVIRQFYVLVDSHFKEKKQVQDYADMLCRSPKTISNLFSLYGLSSPLRVIHERVDAEAKRLLLYTGKSAKEISEILGFEDLATFSRFFKKMNKESLSEYRKREKRE	not soluble
MLSEQKEIAMQVSGMTCAACAARIEKGLKRMPGVTDANVNLATETVNVIYDPAETGTAAIQEKIEKLGYHVVTEKAEFDIEGMTCAACANRIEKRLNKIEGVANAPVNFALETVTVEYNPKEASVSDLKEAVDKLGYKLKLKGEQDSIEGR	soluble
GMTTKDISRPVCILGLGLIGGSLLRDLHAANHSVFGYNRSRSGAKSAVDEGFDVSADLEATLQRAAAEDALIVLAVPMTAIDSLLDAVHTHAPNNGFTDVVSVKTAVYDAVKARNMQHRYVGSHPMAGTANSGWSASMDGLFKRAVWVVTFDQLFDGTDINSTWISIWKDVVQMALAVGAEVVPSRVGPHDAAAARVSHLTHILAETLAIVGDNGGALSLSLAAGSYRDSTRVAGTDPGLVRAMCESNAGPLVKALDEALAILHEAREGLTAEQPNIEQLADNGYRSRIRYEARSGQRRAKESVSPTITSSRPVLRLHPGTPNWEKQLIHAETLGARIEVF	soluble
MTSLVVPGLDTLRQWLDDLGMSFFECDNCQALHLPHMQNFDGVFDAKIDLIDNTILFSAMAEVRPSAVLPLAADLSAINASSLTVKAFLDMQDDNLPKLVVCQSLSVMQGVTYEQFAWFVRQSEEQISMVILEANAHQLLLPTDDEGQNNVTENYFLH	soluble
MIARPTPALGPTPIPRGGGILPRMDRIVIRGAREHNLKNISLELPRGKFIVITGVSGSGKSTLAFDTIYAEGQRRYVESLSSYARQFLGVMDKPEVESIEGLSPAISIDQKTTSHNPRSTVGTVTEIHDYLRLLFARVGQAFCPECGRPIEKQSASEITDRLLKRPPGTRAILMAPLVRGRKGEYRKLFQQLLKEGYARVRVDGVIYLLEEAQGLSLEKYEKHDIDLVIDRVVLKEEERPRIAEAVELALLRGEGLLRVLYPDTGEEELFSEKFACPEHGSVLEELEPRIFSFNSPYGACPACSGLGYRQEFDPELVVNPELSLAEGAILPWSRGRDTGRSYLWDRLRALAEHLGFDLKTPFKDLPEEAKRAVLYGLPEPFEVVFRRGGKETFRVEVRYEGVIPWLEKRYQESDSEGVREALEGFMSLRPCPACGGTRYKREVLSVKVAGRNIAEVSALPVREALAFFQGLEKTLPPFQAQIARPILREIVERLGFLVDVGLDYLTLDRAANTLSGGEAQRIRLATQVGSGLTGVLYVLDEPSIGLHPRDNQRLIRTLKRLRDLGNTLIVVEHDEETMRAADWIVDMGPGAGIHGGEVVAQGTLEDILKSPQSLTGAYLRGEKRIPVPKERRKGNGKWLVLKGARAHNLKNVTLRIPLGRFVAITGPSGSGKSTLVHDVLYAALAQRLMRAKTTPGPYEALEGVEHLDKVIEIDQSPIGRTPRSNPATYTGVFDEIRDLFAKTPEARKRGYGPGRFSFNVKGGRCEACGGDGTVKIEMLFLPDLYVPCEVCKGKRYNKETLEVKLRGKSIADVLDMTVEEALDFFQNVPSIARKLQLMVDVGLGYMKLGQPSPTLSGGEAQRIKLATELGRKATGRTLYILDEPTTGLHFDDVAKLLSVLHRLVDAGNTVVVIEHNLDVVKTADWVIDLGPEGGDRGGEIVAEGTPEEVALTGSPTGAFLARIPEIAARIGVAAD	soluble
MQRYKLPVSVLVVIYTADLQVLLLERADHPGYWQSVTGSQDPGETLLQTAVREVREETGLNTDDYVLSDWQIQNRYEIFEEWNWRYPPGTTHNTEHVFGLELPKTIPAVVSSREHLGYVWLPWREAAEKVFSSSNACAIRMLASKRKSENSR	not soluble
MGDLIAITYHSNALQSERQMYVWTPPGYTGMGEPLPVLYFYHGFGDTGRSAIDQGRIPQIMDNLLAEGKIKPMLVVIPDTETDAKGIIPEDFVPQERRKVFYPLNAKAADRELMNDIIPLISKRFSVRKDADGRALAGLSQGGYQALVSGMNHLESFGWLATFSGVTTTTVPDEGVAARLNDPAAINQQLRNFTVVVGDKDVVTGKDIAGLKTELEQKKIKFDYQEYPGLNHEMDVWRPAYAAFVQKFKIRHLEHHHHHH	not soluble
KGKKVILFAPTFRGSGHGTAHYPFFKIDFERLARYCEKNNAVVLFKMHPFVKNRLNIADKHKQYFVDVSDFREVNDILFITDLLISDYSSLIYEYAVFKKPMIFYAFDLEDYITTRDFYEPYESFVPGKIVQSFDALMDALDNEDYEGEKVIPFLDKHFKYQDGRSSERLVRNLFG	not soluble
PSVQVPQSTILYASDGSKLGETNYGEKRYWVPLKDMNPTIVKATVAIEDQNFYDHHGFDYKRMAGAALADLKAFAKVQGASTITQQYARNLYLEHDKTWKRKWNEAFYTIRLEQNYSKDEILEGYLNTIYYGHGAYGIEAASRLYFGKHAKNLTDAEAALLAGIPKGPSGY	not soluble
MADRDATLWASHEKMLSQPLKDSDAEVYSIIKKESNRQRVGLELIASENFASRAVLEALGSSLNNKYSEGYPGQRYYGGTEFIDELEMLCQKRALQAYHLDPQCWGVNVQPYSGSPANFAVYTALVEPHGRIMGLDLPDGGHLTHGFMTDKKKISATSIFFESMPYKVYPETGYINYDQLEENASLFHPKLIIAGTSCYSRNLDYARLRKIADDNGAYLMADMAHISGLVAAGVVPSPFEHCHVVTTTTHKTLRGCRAGMIFYRKGVRSVDPKTGKETYYELESLINSAVFPGLQGGPHNHAIAGVAVALKQAMTTEFKIYQLQVLANCRALSDALTELGYKIVTGGSDNHLILMDLRSKGTDGGRAEKVLEACSIACNKNTCPGDKSALRPSGLRLGTPALTSRGLLEEDFQKVAHFIHRGIELTLQIQSHMATKATLKEFKEKLAGDEKIQSAVATLREEVENFASNFSLPGLPDF	soluble
QDWLTFQKKHITNTRDVDCDNIMSTNLFHCKDKNTFIYSRPEPVKAICKGIIASKNVLTTSEFYLSDCNVTSRPCKYKLKKSTNKFCVNCANQAPVHFVGVGSC	soluble
YLELNEIESIIKDINTKAQKMHSGIHKRFYLFVALMTEFQALNGMRIGEMLAIQNEDIDFDNKSLNINGTIHWFHDESGGFGVKDTTKTESSYRTIGLSSRSCEILKKAILENKKDSKWNDGYLNRNFVFTNHKGNPMQTERFNKILREAAKDVGIDKEVSSHILRHSHISLLSQQGVSLKAIMDRVGHSDHRTTLSIYSHVTEQMDKDMMNKLEQVKLG	soluble
MDNPVKLDTPVSGWRAGDGSAANYRQVVNYPASSVNVAADQATTARIRGAIESQPKDRPATLVVNGVSMPLKVDADGSFDRPFAFPSGSNSVEVRNAAGQSRRVQFYHGGGGGEVPAKLRVLLSWDSDNTDLDLHLVTPDGDHVWYGNRSLANGATLDVDVTTGYGPEIIATPTPQKGPYLVYVNYFGGGYGSSEDGAEQAAQDLTTARITLVTEEGTPNEKQETFLVPMRKPGELTLVKRFSYPLEHHHHHH	soluble
MAHHHHHHMSSPERGASPPPAEEDKKEKRVIIILEGAHLQLIETKRYIYELANSMKHKHLLRDKKKEEEIRNFRPDILHQCLIHLLESALNKYGLLQVYIKTHDNQLFFVSSNLKIPKTYDQFESLMVTFLRKYKIKANEKNLCLLKFLKNDYNAILPINGKKIGLSVKGRKVHLPDYVQNFQNENMPVTFFIGAVAYSNPITKLENLDDNISISEFSLSAATCCSTICSEFENLWGVF	soluble
MGSDKIHHHHHHMSFPTIPDITPTISINRSDVINLLLASIAFEELGLAHIINAEAEKIQYILGTLSEQVPTEPPTQDDLIEINKSVNQTLRTVIKNQMLLQFKLEDLIVENPLPSITIKKYVSGDGGVTWYDADSPPGPTIDPEQVPMFRFVITNTGNVILTGVTVTDSVLGLISTGGILPPGAFFEEYRSGEYLGGDQSNTATVIGYYLDQQVEDSDVAYYTEPT	not soluble
MSMKTTQEINKEDEELCNESKKFMDVYYDVMDRKREKIGFLYTQVSNAVWNGNPINGYDSICEFMKALPSTQHDIQSLDAQRLPEGVTGDMSGGMLLNVAGAVTVDGDSKRAFTQTLLLGVEDGKYKVKSDRFRYVD	not soluble
MSLLTVGIVDDNPRDLEKLELIVNNMENVELILKANSADEVYHSIQKTPVDLLITDIEMPGMSGYQLADFIQLNNMKTAVIFVTAKSGYAVHAFELNVHDYILKPFNPDRLIQSIDRFTEKKDAGRVTGRLFIRSDGDLVVVPKAEIIFLERTGRTTTIHTINETYETYQSLGELEGDIRESMFIRSHRSFIINLQYVKRFASYSKKSFVVIFEGSSGKALVTKEKLKYLQENYEGHHHHHH	not soluble
MGSDKIHHHHHHYGGDITYNNHNNFHVLHDRHHRSHHSRSNSRDSDEKWECRRLGVFNSPNPLTNPLLSAPKIAYFNRNGKEYAIAVCENPQIQILVGKSRGASPDFTQTRDYAVLSASSKSGLTFKCNRRHDRYEAVNLVTGSMARIEALACITVAQNDTAAVAIVNGIVGPLQAAGLHL	not soluble

— the DeepSol protein solubility set
